Experiment [1] has as its target T1, T49 tryptic fragment of human WISE (human).
T1 construct: Multiply truncated human WISE from tryptic digestion, isolated by HPLC; the two pieces are held together by cystine-knot disulfide bonds (C1-C5, C2-C6, C3-C7); also called T49 peptide
Nature of the experiment: Biacore peptide competition (FIG. 9B). Here is the method: (§1) To identify which peptides compete with WISE for binding to the antibodies of the invention, rhuWise was immobilized on a CM5 surface with high density. 3 nM of mature antibodies Ab-A, Ab-C and Ab-E were pre-incubated with and without 30 nM peptides and huWise (as control), then injected over the huWise surfaces. As shown in FIGS. 9A and B both T49 and T56.1 peptides blocked the binding of the antibodies to huWISE.
On the technique in general: Surface plasmon resonance follows binding to a sensor surface in real time, without labels.

The target in experiment [2] is T2, T56.1 tryptic fragment of human WISE (human).
T2 construct: Multiply truncated human WISE from tryptic digestion, isolated by HPLC; the two pieces are held together by cystine-knot disulfide bonds; also called T56.1 peptide
Description: Biacore peptide competition (FIG. 9B). The method, then:
as §1

A further experiment concerns the target T3, mouse WISE (mouse, UniProt Q9CQN4 24-206).
T3 construct: Recombinant purified protein; also called muWISE; mWISE
T3 sequence: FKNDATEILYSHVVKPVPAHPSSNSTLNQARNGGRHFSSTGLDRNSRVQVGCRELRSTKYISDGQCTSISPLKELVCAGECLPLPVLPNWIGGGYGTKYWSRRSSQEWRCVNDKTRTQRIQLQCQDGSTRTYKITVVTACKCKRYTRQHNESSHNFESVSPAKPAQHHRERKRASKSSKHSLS
Nature of the experiment: KinExA solution equilibrium, rmuWise-coated beads. The method, then: (§2) Binding of muAbs with rhuWise and rmuWise were tested on KinExA. Azlactone beads (Pierce) was pre-coated with rhuWise/rmuWise at pH9.0 and blocked with ethanolamine, then further washed with sample buffer (0.1 mg/mL Heparin in BSA/P20/PBS solution). 10 pM and 100 pM of Ab-A, Ab-C and Ab-E were incubated with various concentrations (0.1 pM-3 nM) of rhuWise/rmuWise at room temperature for at least 10 hours before run through the rhuWise/rmuWise coated beads.
(§3) The amount of the bead-bound muAbs were quantified by fluorescent (Cy5) labeled goat anti-mouse IgG (H+L) antibody (Jackson Immuno Research). The binding signal is proportional to the concentration of free muAbs at binding equilibrium. Equilibrium dissociation constant (Kd) was obtained from nonlinear regression of the competition curves using a two-curve one-site homogeneous binding model (KinExA™ Pro software).
(A kinetic exclusion assay measures how much of one partner remains free in solution.)

The next experiment deals with T4, human WISE (human, UniProt Q6X4U4 24-206).
T4 construct: Recombinant, made in E. coli or mammalian cells; biotinylated in the ELISAs, amine-coupled to CM5 in Biacore; also called huWise; huWISE
T4 sequence: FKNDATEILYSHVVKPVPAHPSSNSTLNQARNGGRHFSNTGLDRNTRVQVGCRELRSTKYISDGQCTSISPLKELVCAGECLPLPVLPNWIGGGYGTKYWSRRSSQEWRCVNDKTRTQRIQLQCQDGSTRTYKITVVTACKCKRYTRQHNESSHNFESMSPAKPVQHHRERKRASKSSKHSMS
Nature of the experiment: KinExA solution equilibrium, rhuWise-coated azlactone beads. Here is the method: as §2, §3

Experiment [3] concerns the target T1, T49 tryptic fragment of human WISE. Nature of the experiment: Biacore peptide competition, 3 nM antibody preincubated with 30 nM peptide. The method, then: as §1
Experiment [4] addresses T2, T56.1 tryptic fragment of human WISE. The experiment is described as above. The method, then: as §1

B1: Ab-P (antibody, V domains shown)
VH: EVRLVESGGGLVQPGRSLKLSCAASGFPFSNYGMAWVRQAPTRGLEWVASITYDGSITFYRDSVKGRFTISRDNAKSTLYLQMDSLRSEDTATYYCTSSDTTDYYHGGFWFAYWGQGTLVTVSS
VL: DIVLTQSPALAVSLGQRATLSCRASQSVSISGHNLMHWYQQKPGQQPKLLIYRASNLPSGIPARFSGSGSGTGFTLTINPVQADDIATYYCQQSRESPWTFGGGTTLELKR
notes: also called Antibody P
Turning to B1, the binding result in experiment [1] and in experiment [2] was “binds” throughout.

B2: Ab-A (antibody, V domains shown)
VH: QIHLVQSGPELKKPGETVKISCKASGFSFTTYGMSWVKQAPGKGLKWMGWINTYSGVPTYADDFKGRFAFSLETSASTAYLQINNLKNEDTATYFCVRGREYYYGSGIAFWGQGTLVTVSA
VL: DVVMTQTPLSLPVSLGDQASISCRSSQSLEHSNGNTYLHWYLQKPGQSPKLLIYKVSNRFSGVPDRFSGSGSGTDFTLKISRVEAEDLGVYFCSQSTHVPLTFGAGTKVELKR
notes: Murine monoclonal antibody from hybridoma, tested in its mature form; The entries may still carry a signal peptide; also called Antibody A; antibody A
In the case of B2, the binding result (with mouse WISE; in experiment [3]; in experiment [4]) was “binds” each time. Moreover, the Kd in the experiment with human WISE is roughly 2 pM.

B3: Ab-C (antibody, V domains shown)
VH: QGQMQQSGAELVKPGASVQLSCKTSGFTFSSTYISWLKQKPGQSLEWIAWIYAGTGGTRYNRKFTGKAQLTVDTSSSTAYMQFSSLTTEDSAIYYCAREGVDGWFTYWGQGTLVTVSA
VL: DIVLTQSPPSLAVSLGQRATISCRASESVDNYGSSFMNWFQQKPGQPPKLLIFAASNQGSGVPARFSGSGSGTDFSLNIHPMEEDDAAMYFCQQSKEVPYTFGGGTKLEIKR
notes: Murine monoclonal antibody from hybridoma, tested in its mature form; also called Antibody C; antibody C
For B3, the binding result (in the experiment with mouse WISE; in experiment [3]; in experiment [4]) was “binds” in each case. The molecule also showed a Kd in the experiment with human WISE of roughly 4 pM.

B4: Ab-E (antibody, mouse IgG1, kappa, V domains shown)
VH: QGQMQQSGAELVKPGASVKLSCKTSGFTFNSHYISWLKQKPGQTLEWIAWIYAGTGGTRYNQKFTGKAQLTVDTSSSTAYMQFSSLTTEDSAIYYCAREGVDGWFTYWGQGTLVTVSA
VL: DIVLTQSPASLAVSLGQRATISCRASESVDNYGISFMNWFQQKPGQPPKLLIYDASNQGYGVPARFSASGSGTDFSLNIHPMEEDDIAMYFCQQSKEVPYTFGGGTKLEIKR
notes: Murine monoclonal antibody from hybridoma, tested in its mature form; polypeptide numbers 26 and 28 and the light/heavy assignment are inferred; also called Antibody E; antibody E
As for B4, the binding result (in the experiment with mouse WISE; in experiment [3]; in experiment [4]) was “binds” each time. The molecule also yielded a Kd with human WISE of roughly 18 pM.

By Kd is commonly meant the concentration at which binding is half-saturated.

Values taken from patent US20090130114A1 (Amgen, published 2009).
